pKd: −log10 of the molar value.
Target: Keap1 labeled with Cy3 (UniProt Q14145)
Assay: MST

Sequence of UniProt Q14145 (Q14145 whole entry): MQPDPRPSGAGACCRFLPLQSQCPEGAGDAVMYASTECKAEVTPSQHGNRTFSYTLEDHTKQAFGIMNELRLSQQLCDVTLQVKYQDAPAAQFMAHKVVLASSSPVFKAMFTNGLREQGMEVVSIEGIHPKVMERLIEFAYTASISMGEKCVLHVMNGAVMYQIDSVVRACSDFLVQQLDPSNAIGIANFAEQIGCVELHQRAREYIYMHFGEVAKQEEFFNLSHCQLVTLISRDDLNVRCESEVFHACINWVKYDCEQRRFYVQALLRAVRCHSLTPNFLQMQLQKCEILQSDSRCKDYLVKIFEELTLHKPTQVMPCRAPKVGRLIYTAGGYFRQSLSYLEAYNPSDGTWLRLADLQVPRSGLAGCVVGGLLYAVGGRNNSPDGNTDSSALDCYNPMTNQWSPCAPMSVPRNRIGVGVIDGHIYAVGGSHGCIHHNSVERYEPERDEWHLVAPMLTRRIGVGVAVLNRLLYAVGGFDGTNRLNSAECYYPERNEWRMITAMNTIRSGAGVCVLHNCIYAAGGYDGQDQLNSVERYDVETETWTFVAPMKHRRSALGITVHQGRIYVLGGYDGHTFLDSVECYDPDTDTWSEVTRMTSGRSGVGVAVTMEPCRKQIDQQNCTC

“MNT0, control modular nanotransporter lacking the antiKeap1 monobody fragment” gave a pKd of 7.03.

With “free translocation domain of diphtheria toxin, DTox (from UniProt P00588 33-567) (domain or fragment)” the pKd was less than 6.00.

— PMC10748074
